According to the MegaScale stability set (Tsuboyama et al. 2023):

B1: 2M8U (parent)
chain: TKAQVIEAFKVFDRDGNGYVTVDYLRKVLNELGDMMPADEIEEMIYEADPQNSGYVQYETFVGMLFL

Variants of: B1
Test: folding stability dG (cDNA display proteolysis); higher = more stable
Conditions: PBS, room temperature

Row | Variant | folding stability dG [kcal/mol]
1 | TKAQVIEAFKVFDFDGNGYVTVDYLRKVLNELGDMMPADEIEEMIYEADPQNSGYVQYETFVGMLFL [R14F] | 4.03
2 | TKAQVIEAFKVFDSDGNGYVTVDYLRKVLNELGDMMPADEIEEMIYEADPQNSGYVQYETFVGMLFL [R14S] | 3.58
3 | TKAQVIEAFKVFDYDGNGYVTVDYLRKVLNELGDMMPADEIEEMIYEADPQNSGYVQYETFVGMLFL [R14Y] | 3.69
4 | TKAQVIEAFKVFDCDGNGYVTVDYLRKVLNELGDMMPADEIEEMIYEADPQNSGYVQYETFVGMLFL [R14C] | 3.42
5 | TKAQVIEAFKVFDLDGNGYVTVDYLRKVLNELGDMMPADEIEEMIYEADPQNSGYVQYETFVGMLFL [R14L] | 3.75
6 | TKAQVIEAFKVFDMDGNGYVTVDYLRKVLNELGDMMPADEIEEMIYEADPQNSGYVQYETFVGMLFL [R14M] | 3.69
7 | TKAQVIEAFKVFDPDGNGYVTVDYLRKVLNELGDMMPADEIEEMIYEADPQNSGYVQYETFVGMLFL [R14P] | 3.5
8 | TKAQVIEAFKVFDADGNGYVTVDYLRKVLNELGDMMPADEIEEMIYEADPQNSGYVQYETFVGMLFL [R14A] | 3.65
9 | TKAQVIEAFKVFDDDGNGYVTVDYLRKVLNELGDMMPADEIEEMIYEADPQNSGYVQYETFVGMLFL [R14D] | 3.5
10 | TKAQVIEAFKVFDGDGNGYVTVDYLRKVLNELGDMMPADEIEEMIYEADPQNSGYVQYETFVGMLFL [R14G] | 3.35
11 | TKAQVIEAFKVFDTDGNGYVTVDYLRKVLNELGDMMPADEIEEMIYEADPQNSGYVQYETFVGMLFL [R14T] | 3.81
12 | TKAQVIEAFKVFDNDGNGYVTVDYLRKVLNELGDMMPADEIEEMIYEADPQNSGYVQYETFVGMLFL [R14N] | 3.34
13 | TKAQVIEAFKVFDVDGNGYVTVDYLRKVLNELGDMMPADEIEEMIYEADPQNSGYVQYETFVGMLFL [R14V] | 3.83
14 | TKAQVIEAFKVFDKDGNGYVTVDYLRKVLNELGDMMPADEIEEMIYEADPQNSGYVQYETFVGMLFL [R14K] | 3.55
15 | TKAQVIEAFKVFDEDGNGYVTVDYLRKVLNELGDMMPADEIEEMIYEADPQNSGYVQYETFVGMLFL [R14E] | 3.62
16 | TKAQVIEAFKVFDHDGNGYVTVDYLRKVLNELGDMMPADEIEEMIYEADPQNSGYVQYETFVGMLFL [R14H] | 3.68
17 | TKAQVIEAFKVFDWDGNGYVTVDYLRKVLNELGDMMPADEIEEMIYEADPQNSGYVQYETFVGMLFL [R14W] | 3.32
18 | TKAQVIEAFKVFDQDGNGYVTVDYLRKVLNELGDMMPADEIEEMIYEADPQNSGYVQYETFVGMLFL [R14Q] | 3.49
19 | TKAQVIEAFKVFDIDGNGYVTVDYLRKVLNELGDMMPADEIEEMIYEADPQNSGYVQYETFVGMLFL [R14I] | 3.77
20 | TKAQVIEAFKVFWRDGNGYVTVDYLRKVLNELGDMMPADEIEEMIYEADPQNSGYVQYETFVGMLFL [D13W] | 2.7
21 | TKAQVIEAFKVFYRDGNGYVTVDYLRKVLNELGDMMPADEIEEMIYEADPQNSGYVQYETFVGMLFL [D13Y] | 2.29
22 | TKAQVIEAFKVFVRDGNGYVTVDYLRKVLNELGDMMPADEIEEMIYEADPQNSGYVQYETFVGMLFL [D13V] | 2.3
23 | TKAQVIEAFKVFDRDGNAYVTVDYLRKVLNELGDMMPADEIEEMIYEADPQNSGYVQYETFVGMLFL [G18A] | 2.63
24 | TKAQVIEAFKVFDRDGCGYVTVDYLRKVLNELGDMMPADEIEEMIYEADPQNSGYVQYETFVGMLFL [N17C] | 2.99
25 | TKAQVIEAFKVFDRDGKGYVTVDYLRKVLNELGDMMPADEIEEMIYEADPQNSGYVQYETFVGMLFL [N17K] | 3.01
26 | TKAQVIEAFKVFDRDGQGYVTVDYLRKVLNELGDMMPADEIEEMIYEADPQNSGYVQYETFVGMLFL [N17Q] | 3.12
27 | TKAQVIEAFKVFDRDGAGYVTVDYLRKVLNELGDMMPADEIEEMIYEADPQNSGYVQYETFVGMLFL [N17A] | 3.12

Row | Variant | folding stability dG [kcal/mol]
28 | TKAQVIEAFKVFDRDGPGYVTVDYLRKVLNELGDMMPADEIEEMIYEADPQNSGYVQYETFVGMLFL [N17P] | 1.86
29 | TKAQVIEAFKVFDRDGHGYVTVDYLRKVLNELGDMMPADEIEEMIYEADPQNSGYVQYETFVGMLFL [N17H] | 3.03
30 | TKAQVIEAFKVFDRDGDGYVTVDYLRKVLNELGDMMPADEIEEMIYEADPQNSGYVQYETFVGMLFL [N17D] | 3.44
31 | TKAQVIEAFKVFDRDGGGYVTVDYLRKVLNELGDMMPADEIEEMIYEADPQNSGYVQYETFVGMLFL [N17G] | 2.96
32 | TKAQVIEAFKVFDRDGFGYVTVDYLRKVLNELGDMMPADEIEEMIYEADPQNSGYVQYETFVGMLFL [N17F] | 3.06
33 | TKAQVIEAFKVFDRDGEGYVTVDYLRKVLNELGDMMPADEIEEMIYEADPQNSGYVQYETFVGMLFL [N17E] | 3.08
34 | TKAQVIEAFKVFDRDGTGYVTVDYLRKVLNELGDMMPADEIEEMIYEADPQNSGYVQYETFVGMLFL [N17T] | 3.95
35 | TKAQVIEAFKVFDRDGRGYVTVDYLRKVLNELGDMMPADEIEEMIYEADPQNSGYVQYETFVGMLFL [N17R] | 3.04
36 | TKAQVIEAFKVFDRDGYGYVTVDYLRKVLNELGDMMPADEIEEMIYEADPQNSGYVQYETFVGMLFL [N17Y] | 3
37 | TKAQVIEAFKVFDRDGWGYVTVDYLRKVLNELGDMMPADEIEEMIYEADPQNSGYVQYETFVGMLFL [N17W] | 2.95
38 | TKAQVIEAFKVFDRDGIGYVTVDYLRKVLNELGDMMPADEIEEMIYEADPQNSGYVQYETFVGMLFL [N17I] | 3.1
39 | TKAQVIEAFKVFDRDGSGYVTVDYLRKVLNELGDMMPADEIEEMIYEADPQNSGYVQYETFVGMLFL [N17S] | 4.02
40 | TKAQVIEAFKVFDRDGMGYVTVDYLRKVLNELGDMMPADEIEEMIYEADPQNSGYVQYETFVGMLFL [N17M] | 3.15
41 | TKAQVIEAFKVFDRDGVGYVTVDYLRKVLNELGDMMPADEIEEMIYEADPQNSGYVQYETFVGMLFL [N17V] | 3.27
42 | TKAQVIEAFKVFDRDGLGYVTVDYLRKVLNELGDMMPADEIEEMIYEADPQNSGYVQYETFVGMLFL [N17L] | 3.39
43 | TKAQVIEAFKVFDRSGNGYVTVDYLRKVLNELGDMMPADEIEEMIYEADPQNSGYVQYETFVGMLFL [D15S] | 2.84
44 | TKAQVIEAFKVFDRNGNGYVTVDYLRKVLNELGDMMPADEIEEMIYEADPQNSGYVQYETFVGMLFL [D15N] | 2.97
45 | TKAQVIEAFKVFDRHGNGYVTVDYLRKVLNELGDMMPADEIEEMIYEADPQNSGYVQYETFVGMLFL [D15H] | 2.69
46 | TKAQVIEAFKVFDRPGNGYVTVDYLRKVLNELGDMMPADEIEEMIYEADPQNSGYVQYETFVGMLFL [D15P] | 2.51
47 | TKAQVIEAFKVFDRQGNGYVTVDYLRKVLNELGDMMPADEIEEMIYEADPQNSGYVQYETFVGMLFL [D15Q] | 3.02
48 | TKAQVIEAFKVFDRMGNGYVTVDYLRKVLNELGDMMPADEIEEMIYEADPQNSGYVQYETFVGMLFL [D15M] | 3.03
49 | TKAQVIEAFKVFDRIGNGYVTVDYLRKVLNELGDMMPADEIEEMIYEADPQNSGYVQYETFVGMLFL [D15I] | 3.02
50 | TKAQVIEAFKVFDRKGNGYVTVDYLRKVLNELGDMMPADEIEEMIYEADPQNSGYVQYETFVGMLFL [D15K] | 2.32
51 | TKAQVIEAFKVFDRWGNGYVTVDYLRKVLNELGDMMPADEIEEMIYEADPQNSGYVQYETFVGMLFL [D15W] | 2.76
52 | TKAQVIEAFKVFDRRGNGYVTVDYLRKVLNELGDMMPADEIEEMIYEADPQNSGYVQYETFVGMLFL [D15R] | 1.81
53 | TKAQVIEAFKVFDRVGNGYVTVDYLRKVLNELGDMMPADEIEEMIYEADPQNSGYVQYETFVGMLFL [D15V] | 2.94
54 | TKAQVIEAFKVFDRTGNGYVTVDYLRKVLNELGDMMPADEIEEMIYEADPQNSGYVQYETFVGMLFL [D15T] | 2.97

Row | Variant | folding stability dG [kcal/mol]
55 | TKAQVIEAFKVFDRYGNGYVTVDYLRKVLNELGDMMPADEIEEMIYEADPQNSGYVQYETFVGMLFL [D15Y] | 2.96
56 | TKAQVIEAFKVFDRLGNGYVTVDYLRKVLNELGDMMPADEIEEMIYEADPQNSGYVQYETFVGMLFL [D15L] | 3.17
57 | TKAQVIEAFKVFDRCGNGYVTVDYLRKVLNELGDMMPADEIEEMIYEADPQNSGYVQYETFVGMLFL [D15C] | 2.9
58 | TKAQVIEAFKVFDRGGNGYVTVDYLRKVLNELGDMMPADEIEEMIYEADPQNSGYVQYETFVGMLFL [D15G] | 2.75
59 | TKAQVIEAFKVFDREGNGYVTVDYLRKVLNELGDMMPADEIEEMIYEADPQNSGYVQYETFVGMLFL [D15E] | 3.55
60 | TKAQVIEAFKVFDRAGNGYVTVDYLRKVLNELGDMMPADEIEEMIYEADPQNSGYVQYETFVGMLFL [D15A] | 3.13
61 | TKAQVIEAFKVFDRFGNGYVTVDYLRKVLNELGDMMPADEIEEMIYEADPQNSGYVQYETFVGMLFL [D15F] | 2.79
62 | TKAQVIEAFKVFDRDRNGYVTVDYLRKVLNELGDMMPADEIEEMIYEADPQNSGYVQYETFVGMLFL [G16R] | 2.65
63 | TKAQVIEAFKVFDRDNNGYVTVDYLRKVLNELGDMMPADEIEEMIYEADPQNSGYVQYETFVGMLFL [G16N] | 3.36
64 | TKAQVIEAFKVFDRDFNGYVTVDYLRKVLNELGDMMPADEIEEMIYEADPQNSGYVQYETFVGMLFL [G16F] | 2.75
65 | TKAQVIEAFKVFDRDMNGYVTVDYLRKVLNELGDMMPADEIEEMIYEADPQNSGYVQYETFVGMLFL [G16M] | 3.04
66 | TKAQVIEAFKVFDRDCNGYVTVDYLRKVLNELGDMMPADEIEEMIYEADPQNSGYVQYETFVGMLFL [G16C] | 2.92
67 | TKAQVIEAFKVFDRDANGYVTVDYLRKVLNELGDMMPADEIEEMIYEADPQNSGYVQYETFVGMLFL [G16A] | 2.96
68 | TKAQVIEAFKVFDRDENGYVTVDYLRKVLNELGDMMPADEIEEMIYEADPQNSGYVQYETFVGMLFL [G16E] | 2.93
69 | TKAQVIEAFKVFDRDVNGYVTVDYLRKVLNELGDMMPADEIEEMIYEADPQNSGYVQYETFVGMLFL [G16V] | 2.42
70 | TKAQVIEAFKVFDRDQNGYVTVDYLRKVLNELGDMMPADEIEEMIYEADPQNSGYVQYETFVGMLFL [G16Q] | 3.25
71 | TKAQVIEAFKVFDRDTNGYVTVDYLRKVLNELGDMMPADEIEEMIYEADPQNSGYVQYETFVGMLFL [G16T] | 2.43
72 | TKAQVIEAFKVFDRDDNGYVTVDYLRKVLNELGDMMPADEIEEMIYEADPQNSGYVQYETFVGMLFL [G16D] | 3.28
73 | TKAQVIEAFKVFDRDINGYVTVDYLRKVLNELGDMMPADEIEEMIYEADPQNSGYVQYETFVGMLFL [G16I] | 2.21
74 | TKAQVIEAFKVFDRDHNGYVTVDYLRKVLNELGDMMPADEIEEMIYEADPQNSGYVQYETFVGMLFL [G16H] | 2.95
75 | TKAQVIEAFKVFDRDPNGYVTVDYLRKVLNELGDMMPADEIEEMIYEADPQNSGYVQYETFVGMLFL [G16P] | 2.11
76 | TKAQVIEAFKVFDRDSNGYVTVDYLRKVLNELGDMMPADEIEEMIYEADPQNSGYVQYETFVGMLFL [G16S] | 3.03
77 | TKAQVIEAFKVFDRDWNGYVTVDYLRKVLNELGDMMPADEIEEMIYEADPQNSGYVQYETFVGMLFL [G16W] | 2.29
78 | TKAQVIEAFKVFDRDYNGYVTVDYLRKVLNELGDMMPADEIEEMIYEADPQNSGYVQYETFVGMLFL [G16Y] | 2.49
79 | TKAQVIEAFKVFDRDKNGYVTVDYLRKVLNELGDMMPADEIEEMIYEADPQNSGYVQYETFVGMLFL [G16K] | 3.04
80 | TKAQVIEAFKVFDRDLNGYVTVDYLRKVLNELGDMMPADEIEEMIYEADPQNSGYVQYETFVGMLFL [G16L] | 2.97
